According to the Human Domainome abundance scans (Beltran et al. 2025):
± gives the uncertainty stated by the source.

B1: RAS guanyl-releasing protein 1, residues 539 to 593; numbered along this chain, O95267 (parent)
chain: GFPHNFQETTYLKPTFCDNCAGFLWGVIKQGYRCKDCGMNCHKQCKDLVVFECKK

Variants of: B1
Assay: abundance fitness (aPCA) (normalised: wild type 0, dead -1); higher = more abundant; growth selection in yeast, the domain comes from the species named
Settings: Homo sapiens

Abundance fitness of substitutions, site by site:
D36: G 0.118 ± 0.08, C -0.245 ± 0.14, F -0.108 ± 0.16, E -0.021 ± 0.099, A -0.146 ± 0.069
R33: C 0.122 ± 0.13, M 0.069 ± 0.083, W 0.004 ± 0.096, V -0.1 ± 0.046, Y -0.402 ± 0.12, E 0.129 ± 0.079, F -0.017 ± 0.06, Q -0.262 ± 0.1, N 0.286 ± 0.17, K 0.121 ± 0.091, A -0.167 ± 0.093, I 0.118 ± 0.076, D -0.26 ± 0.14, P -0.919 ± 0.13, L -0.078 ± 0.078, S -0.025 ± 0.058, G -0.134 ± 0.1
Q30: G -0.52 ± 0.11, K -0.599 ± 0.3, L -0.765 ± 0.12, I -0.872 ± 0.24, W -0.586 ± 0.2, F -0.756 ± 0.21, P -0.669 ± 0.18, E -0.589 ± 0.058, R -0.519 ± 0.1, S -0.54 ± 0.061, A -0.597 ± 0.12, H -0.663 ± 0.21, V -0.617 ± 0.1, N -0.495 ± 0.15, Y -0.693 ± 0.19
C34: M -0.649 ± 0.086, S -0.947 ± 0.12, T -0.776 ± 0.21, D -0.269 ± 0.12, R -0.954 ± 0.15, Q -0.924 ± 0.26, F -0.729 ± 0.071, G -0.951 ± 0.083, V -0.723 ± 0.12, W -0.891 ± 0.23, K -0.886 ± 0.25, L -0.915 ± 0.094, I -0.724 ± 0.32, Y -0.922 ± 0.38, A -0.81 ± 0.18, H -0.809 ± 0.38
G31: S -0.482 ± 0.059, W -0.901 ± 0.21, E -0.414 ± 0.11, L -0.663 ± 0.066, Y -0.06 ± 0.13, H -0.559 ± 0.12, I -0.685 ± 0.22, R -0.719 ± 0.1, K -0.748 ± 0.13, V -0.479 ± 0.067, C -0.352 ± 0.08, N -0.717 ± 0.3, F -0.205 ± 0.15, D -0.597 ± 0.12, A -0.092 ± 0.077, M -0.461 ± 0.32, P -1.08 ± 0.37
V27: C -0.192 ± 0.14, F 0.027 ± 0.11, W -0.22 ± 0.12, S -0.423 ± 0.078, E -0.17 ± 0.1, D -0.657 ± 0.17, Y -0.018 ± 0.072, H -0.516 ± 0.37, P -0.297 ± 0.1, R -0.647 ± 0.11, K -0.434 ± 0.091, L -0.063 ± 0.07, G -0.19 ± 0.046, I -0.119 ± 0.1, A -0.102 ± 0.12
Y32: V -0.007 ± 0.056, K -0.132 ± 0.047, C -0.059 ± 0.07, D -0.224 ± 0.12, P -0.883 ± 0.2, L -0.104 ± 0.055, F -0.312 ± 0.14, W -0.068 ± 0.085, G -0.186 ± 0.069, S -0.026 ± 0.084, E -0.166 ± 0.1, H -0.132 ± 0.1, R -0.393 ± 0.095, M -0.101 ± 0.13, T 0.093 ± 0.095, I -0.184 ± 0.13, A -0.171 ± 0.073, Q -0.536 ± 0.23
K29: T -0.289 ± 0.099, W -0.256 ± 0.14, F -0.224 ± 0.14, V -0.289 ± 0.071, Y -0.011 ± 0.12, C -0.171 ± 0.067, H -0.108 ± 0.24, D -0.618 ± 0.21, S -0.086 ± 0.072, E -0.386 ± 0.096, I -0.252 ± 0.15, A -0.124 ± 0.09, R -0.103 ± 0.082, N 0.013 ± 0.12, P -0.556 ± 0.078, M -0.052 ± 0.12
K35: C -0.13 ± 0.096, V -0.135 ± 0.07, R -0.004 ± 0.067, F -0.193 ± 0.098, W -0.19 ± 0.095, N -0.297 ± 0.11, D -0.096 ± 0.14, Y 0.024 ± 0.11, A 0.041 ± 0.074, H -0.029 ± 0.11, P -0.134 ± 0.11, T -0.022 ± 0.08, L 0.021 ± 0.044, Q 0.1 ± 0.097, G -0.118 ± 0.088, I -0.009 ± 0.049, S -0.026 ± 0.07, E 0.039 ± 0.087, M -0.266 ± 0.099
G26: E -0.517 ± 0.14, R -0.616 ± 0.093, Q -0.462 ± 0.1, V -0.736 ± 0.12, M -0.345 ± 0.056, L -0.452 ± 0.083, W -0.269 ± 0.06, C -0.563 ± 0.059, T -0.529 ± 0.14, I -0.946 ± 0.27, F -0.703 ± 0.14, D -0.449 ± 0.084, K -0.442 ± 0.16, H -0.375 ± 0.092, N -0.562 ± 0.16
I28: Q -0.462 ± 0.17, V -0.056 ± 0.044, L -0.27 ± 0.093, H -0.209 ± 0.13, Y -0.199 ± 0.093, W -0.111 ± 0.092, N -0.243 ± 0.13, R -0.084 ± 0.077, T -0.116 ± 0.07, S -0.136 ± 0.072, K 0.065 ± 0.11, D -0.429 ± 0.2, C -0.223 ± 0.14, E -0.341 ± 0.062
